Laboratory results taken from publication PMC7408900, “Cancer-Associated Substitutions in RNA Recognition Motifs of PUF60 and U2AF65 Reveal Residues Required for Correct Folding and 3′ Splice-Site Selection”.

How the values were obtained:
U2AF65 E162K [1] = target: T1, U2AF65 E162K (human, UniProt P26368 1-475, E162K); assay: EMSA; Kd only in figure; Hill 2.23; binding not apparently reduced; EMSA: 40 mM Tris pH 8.0, 5 mM MgCl2, 0.25 ug/uL heparin, 0.01% Triton, 1 mM DTT, room temperature 20 min; 6% native PAGE in 0.5x TBE at 4 C; 15-17 nM biotin-RNA; conditions: protein: recombinant; tags: N-terminal GST (pGEX6P); label: 5' biotin; single strand
PUF60 H169Y = PUF60 H169Y (human, UniProt Q9UHX1 1-559, H169Y); assay: EMSA; higher affinity than cr probe; approximate Kd only in figure; Hill 2.4; EMSA: 40 mM Tris pH 8.0, 5 mM MgCl2, 0.25 ug/uL heparin, 0.01% Triton, 1 mM DTT, room temperature 20 min; 6% native PAGE in 0.5x TBE at 4 C; 15-17 nM biotin-RNA; conditions: protein: recombinant; tags: 2xHis-lipoyl-TEV, removed by TEV; label: 5' biotin; single strand
U2AF65 E162K [2] = target: T1, U2AF65 E162K; assay: EMSA; Kd only in figure; Hill 1.84; binding not apparently reduced; EMSA: 40 mM Tris pH 8.0, 5 mM MgCl2, 0.25 ug/uL heparin, 0.01% Triton, 1 mM DTT, room temperature 20 min; 6% native PAGE in 0.5x TBE at 4 C; 15-17 nM biotin-RNA; conditions: protein: recombinant; tags: N-terminal GST (pGEX6P); label: 5' biotin; single strand

T1 sequence (P26368 whole entry E162K, one chain of several): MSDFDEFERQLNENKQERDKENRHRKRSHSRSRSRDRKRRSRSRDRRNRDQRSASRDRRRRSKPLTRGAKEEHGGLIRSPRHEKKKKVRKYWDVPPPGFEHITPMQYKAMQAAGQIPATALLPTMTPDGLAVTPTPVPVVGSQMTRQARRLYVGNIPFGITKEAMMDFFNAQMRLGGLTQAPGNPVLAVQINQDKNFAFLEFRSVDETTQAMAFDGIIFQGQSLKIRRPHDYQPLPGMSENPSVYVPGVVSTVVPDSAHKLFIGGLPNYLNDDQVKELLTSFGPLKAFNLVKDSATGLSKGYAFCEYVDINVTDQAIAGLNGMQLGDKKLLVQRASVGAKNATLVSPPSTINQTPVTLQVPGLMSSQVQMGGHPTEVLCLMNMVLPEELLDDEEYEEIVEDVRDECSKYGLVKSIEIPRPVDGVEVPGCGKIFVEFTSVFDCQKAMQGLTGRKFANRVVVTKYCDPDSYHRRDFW
PUF60 H169Y, sequence (Q9UHX1 whole entry H169Y): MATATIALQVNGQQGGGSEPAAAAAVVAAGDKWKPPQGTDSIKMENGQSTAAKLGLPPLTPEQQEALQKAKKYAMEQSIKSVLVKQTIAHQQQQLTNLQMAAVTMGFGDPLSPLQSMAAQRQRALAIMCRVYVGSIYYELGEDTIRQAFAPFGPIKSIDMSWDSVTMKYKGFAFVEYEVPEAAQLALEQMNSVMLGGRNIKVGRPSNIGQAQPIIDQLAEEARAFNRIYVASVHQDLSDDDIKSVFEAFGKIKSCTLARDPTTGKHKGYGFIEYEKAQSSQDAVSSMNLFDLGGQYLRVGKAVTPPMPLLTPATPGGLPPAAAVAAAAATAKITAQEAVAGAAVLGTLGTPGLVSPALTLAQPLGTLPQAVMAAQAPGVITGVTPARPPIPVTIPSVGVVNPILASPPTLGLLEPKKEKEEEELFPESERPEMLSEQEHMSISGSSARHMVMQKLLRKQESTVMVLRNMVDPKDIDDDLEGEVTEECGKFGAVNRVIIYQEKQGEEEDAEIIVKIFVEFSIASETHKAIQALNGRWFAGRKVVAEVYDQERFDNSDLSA

| Binder | binding result (U2AF65 E162K [1]) | binding result (PUF60 H169Y) | binding result (U2AF65 E162K [2]) |
| --- | --- | --- | --- |
| UUUUUUUGUUUUGUUUUGUGUUUUUUGAUAGA (ssRNA) [UBE2F-can3'ss-32] | binds | binds | – |
| CUUUUUGUUUCCUUUUUUUUUUAAUUUAAAGG (ssRNA) [UBE2F-cr3'ss-32] | – | – | binds |
